The results in this text go back to patent publication CN113929774A (INST MICROBIOLOGY CAS, dated 2022).

The target in the assay is SARS-CoV-2南非株(B.1.351)活病毒的S蛋白 (SARS-CoV-2 B.1.351). Briefly: cell-based or functional assay.

B1: 9K抗体 (antibody, V domains shown)
VH: EVQLVESGGGVVQPGRSLGLSCAVSGFTFSSYAMHWVRQAPGKGLEWVALISNDGTIDSYADSVKGRFTISRDNSKNTLYLRMSSLRAEDTAVYYCARDKEQLVPTFDYWGQGTLVTVSS
VL: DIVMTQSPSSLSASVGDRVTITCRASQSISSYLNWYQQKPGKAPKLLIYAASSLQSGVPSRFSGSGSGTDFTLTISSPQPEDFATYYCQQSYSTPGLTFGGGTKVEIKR
Turning to B1, the “中和滴度(半抑制浓度，IC50), live virus CPE assay on Vero E6 cells” value came to 11.5 µg/mL.
